According to patent US20240270874A1 (JIANGSU HENGRUI PHARMACEUTICALS, published 2024):

T1: human KLB on CHOK1-hKLB cells (human, UniProt Q86Z14 1-1044)
T1 construct: whole, on cells; also called human KLB antigen; β-Klotho
T1 sequence (looked up): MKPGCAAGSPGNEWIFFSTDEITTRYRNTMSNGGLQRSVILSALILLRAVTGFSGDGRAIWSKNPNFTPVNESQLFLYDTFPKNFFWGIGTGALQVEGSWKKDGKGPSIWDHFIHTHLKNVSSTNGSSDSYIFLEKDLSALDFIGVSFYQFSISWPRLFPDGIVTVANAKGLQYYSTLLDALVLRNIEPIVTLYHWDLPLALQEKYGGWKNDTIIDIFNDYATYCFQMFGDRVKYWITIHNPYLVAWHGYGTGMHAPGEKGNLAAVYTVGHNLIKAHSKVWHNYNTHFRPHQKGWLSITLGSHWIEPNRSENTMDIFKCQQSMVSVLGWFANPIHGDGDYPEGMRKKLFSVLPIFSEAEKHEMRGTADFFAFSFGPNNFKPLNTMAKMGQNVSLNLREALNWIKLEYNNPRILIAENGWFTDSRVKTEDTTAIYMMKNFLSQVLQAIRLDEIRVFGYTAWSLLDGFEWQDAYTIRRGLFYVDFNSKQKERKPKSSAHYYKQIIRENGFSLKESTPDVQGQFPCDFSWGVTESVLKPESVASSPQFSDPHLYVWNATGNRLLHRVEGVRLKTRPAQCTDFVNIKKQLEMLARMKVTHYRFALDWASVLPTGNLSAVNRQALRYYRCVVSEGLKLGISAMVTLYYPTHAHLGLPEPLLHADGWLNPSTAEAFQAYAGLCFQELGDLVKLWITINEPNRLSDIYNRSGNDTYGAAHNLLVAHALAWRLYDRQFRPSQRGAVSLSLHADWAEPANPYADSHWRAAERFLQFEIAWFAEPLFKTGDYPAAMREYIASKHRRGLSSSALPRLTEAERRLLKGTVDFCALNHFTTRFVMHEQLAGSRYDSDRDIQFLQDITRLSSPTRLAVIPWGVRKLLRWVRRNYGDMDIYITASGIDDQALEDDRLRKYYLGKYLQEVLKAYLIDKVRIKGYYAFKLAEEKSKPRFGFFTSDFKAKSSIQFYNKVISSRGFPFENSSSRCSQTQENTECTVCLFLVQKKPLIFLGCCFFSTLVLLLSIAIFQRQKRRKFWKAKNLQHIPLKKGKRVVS


What follows are binders tested against T1, human KLB on CHOK1-hKLB cells (assay: flow cytometry on CHOK1-hKLB cells).
Description: The above heavy chain variable regions were fused to the heavy chain constant region (set forth in SEQ ID NO: 22) and the light chain variable regions were fused to the light chain constant region (set forth in SEQ ID NO: 23) to construct anti-KLB antibodies, and the binding activity of the obtained antibodies for CHOK1-hKLB was detected (see Test Example 2 of the present disclosure for the experimental method).
The binding ability of the antibodies for CHOK1 cell strains CHOK1-hKLB and CHOK1-cynoKLB overexpressing human KLB and monkey KLB (see Example 1 for specific preparation procedure), respectively, was detected by flow cytometry. The specific procedure was as follows: the above cells were cultured in 10% FBS-containing IMDM medium and incubated in an incubator at 37° C. and 5% CO₂ for 2 days. The cells were then added to a cell plate at 1×10⁵ cells per well, centrifuged at 300 g for 5 min, and then washed once with 1% BSA. The antibody diluted in gradient was added to the cell plate at 100 μL per well, and the mixture was incubated at 4° C. for 1 h and washed once with 1% BSA. The diluted (1:400) APC-goat anti-human IgG Fc fluorescent secondary antibody was added at 100 μL per well, and the resulting mixture was incubated at 4° C. for 1 h. The plate was washed three times with 1% BSA, PBS was added at 100 μL per well, and the plate was read.

EC50 [nM]	Binder
2.4	hAb18-7 (antibody, human IgG1, kappa, L234A L235A, V domains shown, humanized mAb-18: hAb18VH1 + hAb18VL2-1; human IgG1 (L234A, L235A) / kappa constant regions) VH: EVQLVQSGAEVKKPGASVKVSCKASGYTFTDYAMHWVRQAPGQRLEWMGVISTYSGTTNYNQNFKGRVTITVDKSASTAYMELSSLRSEDTAVYYCARSGPLDYWGQGTTVTVSS VL: ENVLTQSPDFQSVTPKEKVTITCRASSSVSSSYLHWYQQKPDQSPKLWIYSTSQLASGVPSRFSGSGSGTDYTLTINSLEAEDAATYYCQQYSGYPLTFGQGTKLEIKR
1.34	hAb18-1 (antibody, human IgG1, kappa, L234A L235A, V domains shown, humanized mAb-18: hAb18VH1 + hAb18VL1; human IgG1 (L234A, L235A) / kappa constant regions) VH: EVQLVQSGAEVKKPGASVKVSCKASGYTFTDYAMHWVRQAPGQRLEWMGVISTYSGTTNYNQNFKGRVTITVDKSASTAYMELSSLRSEDTAVYYCARSGPLDYWGQGTTVTVSS VL: EIVLTQSPDFQSVTPKEKVTITCRASSSVSSSYLHWYQQKPDQSPKLWIYSTSNLASGVPSRFSGSGSGTDFTLTINSLEAEDAATYYCQQYSGYPLTFGQGTKLEIKR
2	hAb18-6 (antibody, human IgG1, kappa, L234A L235A, V domains shown, humanized mAb-18: hAb18VH3 + hAb18VL2; human IgG1 (L234A, L235A) / kappa constant regions) VH: EVQLVQSGAEVKKPGASVKVSCKGSGYTFTDYAMHWVRQAPGQRLEWIGVISTYSGTTNYNQNFKGRATVTVDKSASTAYMELSSLRSEDTAVYYCARSGPLDYWGQGTTVTVSS VL: ENVLTQSPDFQSVTPKEKVTITCRASSSVSSSYLHWYQQKPDQSPKLWIYSTSNLASGVPSRFSGSGSGTDYTLTINSLEAEDAATYYCQQYSGYPLTFGQGTKLEIKR
2.7	hAb18-11 (antibody, human IgG1, kappa, L234A L235A, V domains shown, humanized mAb-18: hAb18VH1 + hAb18VL2-5; human IgG1 (L234A, L235A) / kappa constant regions) VH: EVQLVQSGAEVKKPGASVKVSCKASGYTFTDYAMHWVRQAPGQRLEWMGVISTYSGTTNYNQNFKGRVTITVDKSASTAYMELSSLRSEDTAVYYCARSGPLDYWGQGTTVTVSS VL: ENVLTQSPDFQSVTPKEKVTITCRASSSVTSSYLHWYQQKPDQSPKLWIYSTSQLASGVPSRFSGSGSGTDYTLTINSLEAEDAATYYCQQYSGYPLTFGQGTKLEIKR
1.9	hAb18-3 (antibody, human IgG1, kappa, L234A L235A, V domains shown, humanized mAb-18: hAb18VH2 + hAb18VL1; human IgG1 (L234A, L235A) / kappa constant regions) VH: EVQLVQSGAEVKKPGASVKVSCKGSGYTFTDYAMHWVRQAPGQRLEWMGVISTYSGTTNYNQNFKGRVTVTVDKSASTAYMELSSLRSEDTAVYYCARSGPLDYWGQGTTVTVSS VL: EIVLTQSPDFQSVTPKEKVTITCRASSSVSSSYLHWYQQKPDQSPKLWIYSTSNLASGVPSRFSGSGSGTDFTLTINSLEAEDAATYYCQQYSGYPLTFGQGTKLEIKR
2.7	hAb18-10 (antibody, human IgG1, kappa, L234A L235A, V domains shown, humanized mAb-18: hAb18VH1 + hAb18VL2-4; human IgG1 (L234A, L235A) / kappa constant regions) VH: EVQLVQSGAEVKKPGASVKVSCKASGYTFTDYAMHWVRQAPGQRLEWMGVISTYSGTTNYNQNFKGRVTITVDKSASTAYMELSSLRSEDTAVYYCARSGPLDYWGQGTTVTVSS VL: ENVLTQSPDFQSVTPKEKVTITCRASSSVSTSYLHWYQQKPDQSPKLWIYSTSQLASGVPSRFSGSGSGTDYTLTINSLEAEDAATYYCQQYSGYPLTFGQGTKLEIKR
0.38	hAb99-19 (antibody, human IgG1, kappa, L234A L235A, V domains shown, humanized mAb-99: hAb99VH3-NV + hAb99VL2; human IgG1 (L234A, L235A) / kappa constant regions) VH: EVQLVQSGAEVKKPGASVKVSCKTSGYTFTNYGINWVRQAPGQGLEWMGYIYIGNVDIEYNAKFKGRVTITSDTSASTAYMELSSLRSEDTAVYFCARGRGLGHFDVWGQGTTVTVSS VL: DIQMTQSPSSLSASVGDRVTITCRASKSISKFLAWFQQKPGKTNKLLIYSGSTLQSGVPSRFSGSGSGTDFTLTISSLQPEDFATYYCQQHNEYPWTFGGGTKVEIKR
0.41	hAb99-20 (antibody, human IgG1, kappa, L234A L235A, V domains shown, humanized mAb-99: hAb99VH3-NL + hAb99VL2; human IgG1 (L234A, L235A) / kappa constant regions) VH: EVQLVQSGAEVKKPGASVKVSCKTSGYTFTNYGINWVRQAPGQGLEWMGYIYIGNLDIEYNAKFKGRVTITSDTSASTAYMELSSLRSEDTAVYFCARGRGLGHFDVWGQGTTVTVSS VL: DIQMTQSPSSLSASVGDRVTITCRASKSISKFLAWFQQKPGKTNKLLIYSGSTLQSGVPSRFSGSGSGTDFTLTISSLQPEDFATYYCQQHNEYPWTFGGGTKVEIKR
0.45	hAb99-21 (antibody, human IgG1, kappa, L234A L235A, V domains shown, humanized mAb-99: hAb99VH3-QG + hAb99VL2; human IgG1 (L234A, L235A) / kappa constant regions) VH: EVQLVQSGAEVKKPGASVKVSCKTSGYTFTNYGINWVRQAPGQGLEWMGYIYIGQGDIEYNAKFKGRVTITSDTSASTAYMELSSLRSEDTAVYFCARGRGLGHFDVWGQGTTVTVSS VL: DIQMTQSPSSLSASVGDRVTITCRASKSISKFLAWFQQKPGKTNKLLIYSGSTLQSGVPSRFSGSGSGTDFTLTISSLQPEDFATYYCQQHNEYPWTFGGGTKVEIKR
